Test results from US20170281788A1.

Target: insulin receptor (IR-B), P06213
Test: cell-based or functional assay

potency (activity at the insulin subtype B receptor): 9.9
B1: GLP-1/insulin fusion GLP-DP8 (ligand)
chain: HAEGTFTSDVSSYLEEQAAREFIAWLVRGRGGPEHLCGAHLVDALYLVCGDRGFYFNDRGAGSSSRRGIVDECCHRSCDLRRLENYCN
